We go through 1 substance from publication PMC6754456, “A processive endoglucanase with multi-substrate specificity is characterized from porcine gut microbiota” (Scientific Reports, 2019).

In the data set the test system is O=[N+]([O-])c1ccc(O[C@@H]2O[C@H](CO)[C@@H](O[C@@H]3O[C@H](CO)[C@@H](O)[C@H](O)[C@H]3O)[C@H](O)[C@H]2O)cc1. Put plainly: purified protein. The note with it: 100 mM MES pH 6.0, 50 °C, 10 min.

With p4818Cel5_2A (uncultured bacterium), the Km was 1.2 ± 0.1 mM, the kcat is 1.63 ± 0.0583 s⁻¹ and the specificity constant (kcat/Km) is 1350 M⁻¹ s⁻¹.
